The values below come from article PMC4175280, “Characterization of proanthocyanidin metabolism in pea (Pisum sativum) seeds” (BMC Plant Biology, 2014).

One data set has as its target T1, PsLAR (Lathyrus oleraceus, UniProt A0A076G360).
T1 construct: gene LAR
T1 sequence (A0A076G360 1-351): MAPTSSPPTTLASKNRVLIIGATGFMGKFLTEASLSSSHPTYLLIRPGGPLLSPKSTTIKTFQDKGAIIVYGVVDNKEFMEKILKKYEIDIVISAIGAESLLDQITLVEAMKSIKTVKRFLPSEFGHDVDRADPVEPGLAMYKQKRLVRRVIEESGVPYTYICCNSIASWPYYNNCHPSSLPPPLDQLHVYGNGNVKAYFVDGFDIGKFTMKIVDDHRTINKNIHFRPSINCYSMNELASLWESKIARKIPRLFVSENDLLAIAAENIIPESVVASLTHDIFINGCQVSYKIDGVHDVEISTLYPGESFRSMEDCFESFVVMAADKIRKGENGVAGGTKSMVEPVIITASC
In words: coupled PsDFR/PsLAR assay, LC-MS of product. The data set is classed as biochemical. The following applies: NADPH, pH 6, 40°C.

Substrate in data set [1]: Oc1cc(O)c2cc(O)c(-c3ccc(O)c(O)c3)[o+]c2c1
In words: HPLC-DAD of cis-flavan-3-ol product, Michaelis-Menten. The data set is classed as biochemical, Lathyrus oleraceus. The following applies: 20 mM NADPH, 100 mM Tris-HCl pH 7, 42°C, 20 min. The text has this:
(§1) HPLC-DAD of cis-flavan-3-ol product, Michaelis-Menten on PsANR

Substrate in data set [2]: Oc1ccc(-c2[o+]c3cc(O)cc(O)c3cc2O)cc1
Described as above. The data set is classed as biochemical, Lathyrus oleraceus. The following applies: 20 mM NADPH, 100 mM Tris-HCl pH 7, 42°C, 20 min.
Source text: as §1

Substrate in data set [3]: Oc1cc(O)c2cc(O)c(-c3cc(O)c(O)c(O)c3)[o+]c2c1
The data set is described as above. It counts as biochemical, Lathyrus oleraceus. Conditions: 20 mM NADPH, 100 mM Tris-HCl pH 7, 42°C, 20 min.
Source text: as §1

With `Oc1cc(O)c2c(c1)O[C@H](c1ccc(O)c(O)c1)[C@@H](O)C2` [(+)-catechin], the “coupled PsDFR/PsLAR assay, LC-MS of product” value at PsLAR (substrate made in situ from dihydroquercetin by PsDFR) is “Only co-incubation of PsDFR and PsLAR could synthesize compounds displaying [M + H]^+ ion for CT”.

In the case of `Oc1cc(O)c2c(c1)O[C@H](c1cc(O)c(O)c(O)c1)[C@@H](O)C2` [gallocatechin], at PsLAR (substrate made in situ from dihydromyricetin by PsDFR), the “coupled PsDFR/PsLAR assay, LC-MS of product” value is “co-incubation of PsDFR and PsLAR could synthesize compounds displaying [M + H]^+ ion for CT”.

B1: PsANR (Lathyrus oleraceus) (protein)
chain: MASIKEVGKKKACVIGGTGFVASILIKQLLEKGYAVNTTVRDLDNPKKISHLVALKSLGELNLFKAELTVDGDFDAPIAGCELVFQLATPVNFASQDPENDMIKPAIKGVLNVLKACAKAKEVKRVILTSSAAAVTINELKGEDHVMDETNWSDVEFLNAAKPPTWGYPASKVLAEKAAWEFAEKNDIDLITVIPTLTMGPYLTQDMPSSVGLAMSLITGNDFLVNALKGMQFLSGSISITHVEDICRAHIFVAEKESASGRYICCAQNTCVPELAKFFSKRYPQYKVPTKFEDCPSKAKLIIFFEKLIKEGFGFKYGIGETYAQTIEYLKIKGVLKK
As a reminder, the Km is the concentration of substrate that gives half-maximal velocity. One may read the kcat/Km as the second-order rate constant that governs catalysis at low substrate concentration. Turning to B1, the Km in data set [1] was found to be 37.0 ± 0.2 µM; in data set [2], 39.0 ± 0.1 µM; in data set [3], 183.6 ± 0.2 µM. For the same molecule, the values for the kcat/Km in data set [1], in data set [2] and in data set [3] were 13.5 M⁻¹ s⁻¹, 30.7 M⁻¹ s⁻¹ and 4.3 M⁻¹ s⁻¹, respectively.
